Assay results: the DeepSol protein solubility set

test: soluble on expression in E. coli; label from the status in PepcDB or PDB records

Sequence	soluble on expression in E. coli
MSLKAWQLENFGLDNLKQVELEKPEIAEDQILIKVNSVSLNYRDTAIVEGIYTPELLKFPFIPVSDASGIVVEIGSKVTKFKKGDRVTSHMFTKWLDGKPKSDEQSHALGATVDGGLSEYMVLNENAAVFSPETLTDNQSSTLPVAAFVNWFSLVEYGNIKAGDKVLVQGTGGVSIFAIQIASALGAEVIATSSSDEKLEKAKELGASKVINYKTHPDWEKEVQKLTNGKGVEHIVEVVGGSSIAKSIDALAFQGHIYVIGFLENMEANVNLFALLAKQARIQGVNLGHHRAFEDFNKALDQINIDPVIDTVYSFDQAKEAYEHQMKGAFGKIVIDFNEGHHHHHH	not soluble
MTTHQFEHPLNEKTRIYLRVEALLNQMERASTFSDGIQHQLFFRSLFDMLEIFEQIQLKSELAKDMEKQRLTYRSWLHVEGVDQEMLNSLLTEVDEVHRDLMSAERFGQSLKEDRFLSAIRQRFNLPGGSCCFDLPALHYWLHLPLDRKMRDAQQWMQTVTPLSNALKLWLKLTRETGHYRSRMASNGFYQSDAEDANILRLAIPLEYGVYPMISGHKNRFAIKFIDFHSGQACTQDIAFDLAVCC	not soluble
MRLPILLLSILGLSLGFGHDSPSSPAANQYATELADRFFTKFIKAVKYSDVRVMDSLLLSSNENLSSKNMIREFYKYPNTKIHDARFVGRNIATTVFFPLSPHGYDIPFKSADFILKKRFMGDWAITSMENLKYNSGKG	not soluble
MMNLHALPTSPRRWQCYDGGNFYQTRLRVSESPNMFKKILFPLVALFMLAGCAKPPTTIEVSPTITLPQQDPSLMGVTVSINGADQRTDQALAKVTRDNQIVTLTASRALRFLLQEVLEKQMTARGYMVGPNGPVNLQIIVSQLYADVSQGNVRYNIATKADIAIIATAQNGNKMTKNYRASYNVEGAFQASNKNIADAVNSVLTDTIADMSQDTSIHEFIKQNAR	not soluble
QDWLTFQKKHITNTRDVDCDNIMSTNLFHCKDKNTFIYSRPEPVKAICKGIIASKNVLTTSEFYLSDCNVTSRPCKYKLKKSTNKFCVNCANQAPVHFVGVGSC	soluble
MLIALTGTPGTGKSSVAERLRERGYKVATVVELAEKHGCIIDEEDGEIVIDVESLAARIDFEGIVEGHLSHLLKPDVAIVLRCNPAVLRERLKGRNWSEEKLLENLEAEMLDVILVEALEHASEVYEIDTTEMSLEEVIEAVEAIIRGDREARKRYKPGGIDWLSELEDRIEEFMRKVLEHHHHHH	soluble
MLTRCQARLLGLTSGEDGGASGSSTSSVPQSPTGVATSGLPRVSGYSIACEASSATSAKPGDPPPFIRRLSLAATSSSSASTAARGCRTNSFFEPSASASKAALHVNSGSGGDGGGGRARLGARPTDAPLSKAQAAIDYWTAASTTAGPSIWFAKDSASPWRALHVSSPKAAVHVTGSFGATLKSADGSSLAGCSARLTAAQLRVRWCGVTRNCSSLHASTRATANGGGAPRASANSVHGVHTAQLSIAACPASTPPRTEFVIEARAGIATSGGDSTGVAQQTDRALAPLNVASRRSLALFTSPFYADVAAPALSASAAALGATEAAALLPVMHQISTQRAAAAALALRQRKEDVRAQRQRRICHEVHNQVYMKAHEVRMRLLFGLSGTDSDAATPAPSGTLAQGHAVAPSAPSKAALGEDHIAADEEAYLQSLNPSKSDEEAKVLRVVASIDAALRRHLASAYKDASQPTFPSESSSADQRVRAADAVADHHHHHHFTDGFAARQPAILEAVIADATRRVESFTGELLPYQQEGVRWLLRLTAVEHMGGILADDMGLGKTAQTVVYLSCYKDMVERVVQGLLEELEQRHARLCQRALGLTVTATGSGALAREAGSVEEGEMPSWLTWCAEATAKGEYISRRTEGRLQRSSSTIQPLMRGVAHGDSIAASAPLAATVEPASTAATPELAAARAWWLHKTCEAGEAMAVAAGGGQGRGRHSCG	not soluble
MGSDKIHHHHHHMADRPHAEEGQTAGPAGQPGVAAWLDNQPPKWRPVASAIGSLELMTFFQFVLAAVLMSALPAHGADRIIYLTFDDGPLNGTSNILDVLEAEQVPATLFMVGMHAEAGASNKALVRRAKAMPLVTIGNHSYTHAYNHYRHFYGDTEGVVADMLMANVVLGLKPAVHARLPGRDVFRLPSMSKDDNSLGPAQAGREDPDYEFVAASGFYLYGWDHEWVHKDSGEPVQSVDHLVSEIDHLFGYGHFAKPGKLILLMHDEMFQDGFDGKTKLTDLITALKLRHYAFGTIPNYDH	not soluble
MPTVRVKEGENPEYALRRFKRSCEKAGILTELRRREFYEKPTAERKRKQAAAVKRHLKKISRDVSSRRGVGHRRKKSTTLEHHHHHH	not soluble
MGSDKIHHHHHHMTFILNSQNVFNYLLEKGLCNQSEQPPAKIEQLTAKNFNLLVTLPGDRKLLVKQERHNPEGKAAGEFLIEWRIQEFLQQFPNLSNYRSFLPEVLHFDVENSIIVFKYFDDYRDLMDFYTKGNSFNIEIATAIGNILGTIHRDTFNRQEYQEFFTKNSDNLMGDQVLHLVRRLERVEPEIFGIVPSDGLKFFALYQRYDSLGQAIAELGNAVTPSCLTHNDLKLNNILLHKDWQDSSNNIVRLIDWERSAWGDPAFDLGTLISSYVQIWLGSLVISNSLSIEESLRLAITPLEVLQPSISTLTQAYLKTFPEILDHRSDFLQRVVQFTGFTLIQQIQAMIQYQKSFGNMGIAMLQVAKTLLSRPVQSMPTIFGAAAVELGHLNNSPV	not soluble
MSLKEDFDLKTHIESSGHGVDTCLHVVLSSKVCRGYLVKMGGKIKSWKKRWFVFDRLKRTLSYYVDKHETKLKGVIYFQAIEEVYYDHLRSAAKKRFFRFTMVTESPNPALTFCVKTHDRLYYMVAPSAEAMRIWMDVIVTGAEGYTQFMNEGHHHHHH	not soluble
MGSDKIHHHHHHMDSRDMQAIGLCRFSYPAIGGFQVEHETIEERISYLYAEDRLEERFQLLETVALPCLREQTDQNFELIVVIGDTLPKRHGDRLHDLTSDMPQVRIVVEPPRPQRELMKELLNSARTDPSKPCLQFRYDDDDAVSVDFIERFRNALNDCRGLVTTNRTVAVDFNRGYVAELGADGIAATETVRTLYVASLGMYVKGGCRLTIMNFAHEKIGRFMPVISISDVPMWVRSHNGFNDSRQKKVKPVPVVPLTEDQKAEFAARFAIREDHVKRVFSGG	not soluble
VDLNALADLPLTYPEVGATATGRLPAGYNHLDVSTQIGTGRQRFEQAADAVMHWGMQRNAGLRVRASSETAVVSAVVLVGIAFLRAPCRVVYVIDEPDVRGFGYGTLPGHPVSGEERFAVRCDPMTSVVFAEVLSFSRPATWASKAAGPLGAVTQRFIAQRYLRAV	not soluble
MGSDKIHHHHHHMEIKEMVSLARKAQKEYQATHNQEAVDNICRAAAKVIYENAAILAREAVDETGMGVYEHKVAKNQGKSKGVWYNLHNKKSIGILNIDERTGMIEIAKPIGVVGAVTPTTNPIVTPMSNIIFALKTCNAIIIAPHPRSKKCSAHAVRLIKEAIAPFNVPEGMVQIIEEPSIEKTQELMGAVDVVVATGGMGMVKSAYSSGKPSFGVGAGNVQVIVDSNIDFEAAAEKIITGRAFDNGIICSGEQSIIYNEADKEAVFTAFRNHGAYFCDEAEGDRARAAIFENGAIAKDVVGQSVAFIAKKANINIPEGTRILVVEARGVGAEDVICKEKMCPVMCALSYKHFEEGVEIARTNLANEGNGHTCAIHSNNQAHIILAGSELTVSRIVVNAPSATTAGGHIQNGLAVTNTLGCGSWGNNSISENFTYKHLLNISRIAPLNSSIHIPDDKEIWEL	not soluble
PFEIVFEGAKEFAQLIDTASKLIDEAAFKVTEDGISMRAMDPSRVVLIDLNLPSSIFSKYEVVEPETIGVNLDHLKKILKRGKAKDTLILKKGEENFLEITIQGTATRTFRVPLIDVEEMEVDLPELPFTAKVVVLGEVLKAAVKAASLVSDSIKFIARENEFIMKAEGETQEVEIKLTLEDEGLLDIEVQEETKSAYGVSYLSDMVKGLGKADEVTIKFGNEMPMQMEYYIRDEGRLTFLLAPRVEE	soluble
MGSDKIHHHHHHMDNEIVSSWHQGELAVQQRAGTDERMAEIGPKFIREFMPQQHRDFFQSLSMIFVGYTDHCSNAYASVLFGAPGFIQSPTETELVINTQSTIGDFIIEDLREGDHIGLVGIEFDTKRRNRINGVITDINQKNIKVKVLQSYGNCPKYIQPKEFAPNRSYSEFTTVSLDQLSQKYREIISSADTFFIASSFDDGQKFRNRGVDVSHRGGEVGFVSINAAGQLLVDDYVGNGFFNTLGNLLENPIASLLFCDWQTGHVLKIAVSSEILWHDEQQDSVVLAAGKVKRSLCFTPIKIEQFNNGLAYIQQF	not soluble
GPGSMKKTVAAAPPKSPAPAKSKISVTRTGVNTTYPMPPPMPEKNYAPFFAEGCQTIAASKASMPPVQPASPLPPMHSAPPTASVVSNSIPPSSPATAPGERSPAVAARSVPTRFSPATVPRHHMNPNATEFMPGRRNGPDGGLEALPTSTADMELAKTPAGAAAAAVHAPSLPGAVRRSLQNSPIIQPSRLSVKSASEIEAISKNSALNAAAAAYVPQRTLARVVLTQPSPLALAPSEDPAKNNIEMMLDDLWCLFYLPTTLGENIKEEDYNPTLVFRVDSILTFWRVVNNIAAPSELQLSTLYLFRDGIDPKWEDPANRDGGIVKVKATAAQVDEAWELLLCRTIGDSWSPSVRETVNGVVLKVRERAYWLELWVTKNSSALQKDLAELWHPILGASFATTYLTHAMMQERSHAAAALAAEKQKKNRRRY	soluble
MGSDKIHHHHHHMSNNHKDSTINLYNHTASDWIRGEPSSLSDFTARPSVLELCEPVSGLRVVDIGCGEGYCSRELHRRGAAQVYGIDLSQGMIEAAKLQEVEHPLSISYEVGCATNLKRFDDSEIDLVVAVFLFNYLTISQTQECMAEVARILRPGGRFVFSVPHPSFPYMREAAYPFYFQVEGAGYFSNRDQQFPGRIWKRDGSWLNVQLIHKTLEDYFNALRIAGFNTMPILQELRVTSEHIAVDKSFFSPLLDQPLHLALQILR	not soluble
MGSDKIHHHHHHMRGWILYKETATQLKPEWYEIERLLAAAKADNIELEVYAPDEFDLTVTREDNKSILLNGQPVELPDFIIPRMGSGTTYFALAIIRHLERLGVYCLNPSKAIEIVKDKLFSQQLLAEKNLPTPKTMLVKFPVDIDLVERHLGFPVVIKTLSGSQGSGVFLSHKAREFDDLMQLIEATNKNANIILQEFIANSHGRDLRVFTIGGRVAGCYERRGQEDSFKANVSAGGSARPFDITPEIEWLATQTANILDLDVAGIDLLFDNGHYKICEANSSPGFEGLESCLNVDIAAQILHFIRIRLGMFNKDEKNSDPQLTHAGPALANNVTSSKAAE	not soluble
MGQTLSEPVTKKESASCANENYLVGSSCMQGWRVDMEDAHTHLLSLPDDPKCAFFAVYDGHGGSKVSQYSGINLHKKVVAQKEFSEGNMKEAIEKGFLELDQQMRVDEETKDDVSGTTAVVVLIKEGDVYCGNAGDSRAVSSVVGEARPLSFDHKPSHETEARRIIAAGGWVEFNRVNGNLALSRALGDFAFKNCDTKPAEEQIVTAFPDVITDKLTPDHEFIVLACDGIWDVMTNQEVVDFVREKLAEKRDPQSICEELLTRCLAPDCQMGGLGCDNMTVVLVGLLHGQSPDTLFTKCARPAVFTGVNNEDGDQNQIQQDISRVINNFDGEQRVNAANQEEEEDDNEPAPANFQV	soluble
MEYKSSPKRPYYLRGFYDWLVDNSFTPYLVVDATYLGVNVPVEYVKDGQIVLNLSASATGNLQLTNDFIQFNQRFKGVSRELYIPMGAALAIYARENGDGMMFEPEEIYDELNIEPDTEQPTGFYEAVD	soluble
MNMTKNTMGTKLPRKLEQKMAVVGEQIKLARLRRNLSVAQVAERATCSPLTVSRIEKGAPTVAIGIYLRVLYALQLDDDILWLAKEDKLGKTLQDLSLKTRERASKKE	not soluble
